PLU mean data for 7 molecules are collected here from US20220229068A1, “DETECTION OF PROTEIN TO PROTEIN INTERACTIONS” (THE GOVERNING COUNCIL OF THE UNIVERSITY OF TORONTO, priority 2019, published 2022).

Experiment in all cases: SIMPL ELISA, bait-IN/prey-CIC
For orientation: An ELISA detects its analyte on a solid surface through an enzyme-linked reagent.

The target of assay [1] is T1, BATF (prey, CIC format) (human) (UniProt Q16520).
T1 sequence (looked up): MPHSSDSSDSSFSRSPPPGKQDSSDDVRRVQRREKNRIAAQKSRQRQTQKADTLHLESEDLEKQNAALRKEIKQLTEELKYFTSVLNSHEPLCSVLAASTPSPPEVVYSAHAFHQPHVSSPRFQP

Assay [2] concerns the target T2, PTPN11 (prey, CIC format) (human) (UniProt Q06124).
T2 sequence (looked up): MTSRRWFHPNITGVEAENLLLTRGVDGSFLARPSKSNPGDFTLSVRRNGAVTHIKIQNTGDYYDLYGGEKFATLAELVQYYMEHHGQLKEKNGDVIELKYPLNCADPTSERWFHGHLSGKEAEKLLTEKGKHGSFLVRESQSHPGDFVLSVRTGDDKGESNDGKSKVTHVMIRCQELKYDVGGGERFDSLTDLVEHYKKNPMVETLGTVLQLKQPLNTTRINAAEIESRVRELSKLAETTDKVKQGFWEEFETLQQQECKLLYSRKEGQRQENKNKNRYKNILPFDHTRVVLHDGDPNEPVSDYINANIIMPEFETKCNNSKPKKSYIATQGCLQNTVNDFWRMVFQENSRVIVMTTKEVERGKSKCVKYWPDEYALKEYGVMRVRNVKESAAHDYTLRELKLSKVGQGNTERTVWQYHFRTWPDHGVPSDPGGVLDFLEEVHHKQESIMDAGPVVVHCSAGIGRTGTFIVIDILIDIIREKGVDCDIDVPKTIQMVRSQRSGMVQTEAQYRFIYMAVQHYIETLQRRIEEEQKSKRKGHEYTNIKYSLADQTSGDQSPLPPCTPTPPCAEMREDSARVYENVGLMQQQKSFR

The target of assay [3] is BCL2L1 (prey, CIC format) (human) (UniProt Q07817).
Assay [4] deals with T3, DCP1A (prey, CIC format) (human) (UniProt Q9NPI6).
T3 sequence (looked up): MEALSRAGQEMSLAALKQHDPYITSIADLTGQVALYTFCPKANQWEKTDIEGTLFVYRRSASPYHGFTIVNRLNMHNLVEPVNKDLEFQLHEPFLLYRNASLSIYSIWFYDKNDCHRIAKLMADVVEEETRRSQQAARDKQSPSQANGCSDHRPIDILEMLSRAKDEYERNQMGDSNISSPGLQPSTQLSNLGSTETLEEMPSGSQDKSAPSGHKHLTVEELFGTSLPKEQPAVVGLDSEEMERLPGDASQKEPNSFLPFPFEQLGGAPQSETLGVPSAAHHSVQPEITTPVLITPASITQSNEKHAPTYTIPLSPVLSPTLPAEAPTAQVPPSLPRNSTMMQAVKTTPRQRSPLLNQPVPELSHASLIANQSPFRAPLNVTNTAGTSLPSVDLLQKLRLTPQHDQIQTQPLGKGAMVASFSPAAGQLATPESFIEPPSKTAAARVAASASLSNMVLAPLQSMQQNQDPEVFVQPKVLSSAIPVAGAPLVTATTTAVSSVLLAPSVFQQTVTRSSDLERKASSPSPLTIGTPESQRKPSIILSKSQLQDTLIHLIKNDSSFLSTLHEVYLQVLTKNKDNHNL

Assay [5] deals with DDIT3 (prey, CIC format) (human) (UniProt P35638).
Assay [6] has as its target LMNB1 (prey, CIC format) (human) (UniProt P20700).
Assay [7] has as its target CASP9 (prey, CIC format) (human) (UniProt P55211).
For assay [8], the target named is ARHGAP1 (prey, CIC format) (human) (UniProt Q07960).
Substrate in assay [9]: FOS (prey, CIC format) (human) (UniProt P01100)
Assay [10] has as its target PCNA (prey, CIC format) (human) (UniProt P12004).
Assay [11] deals with T4, FRS2 (prey, CIC format) (human) (UniProt Q8WU20).
T4 sequence (looked up): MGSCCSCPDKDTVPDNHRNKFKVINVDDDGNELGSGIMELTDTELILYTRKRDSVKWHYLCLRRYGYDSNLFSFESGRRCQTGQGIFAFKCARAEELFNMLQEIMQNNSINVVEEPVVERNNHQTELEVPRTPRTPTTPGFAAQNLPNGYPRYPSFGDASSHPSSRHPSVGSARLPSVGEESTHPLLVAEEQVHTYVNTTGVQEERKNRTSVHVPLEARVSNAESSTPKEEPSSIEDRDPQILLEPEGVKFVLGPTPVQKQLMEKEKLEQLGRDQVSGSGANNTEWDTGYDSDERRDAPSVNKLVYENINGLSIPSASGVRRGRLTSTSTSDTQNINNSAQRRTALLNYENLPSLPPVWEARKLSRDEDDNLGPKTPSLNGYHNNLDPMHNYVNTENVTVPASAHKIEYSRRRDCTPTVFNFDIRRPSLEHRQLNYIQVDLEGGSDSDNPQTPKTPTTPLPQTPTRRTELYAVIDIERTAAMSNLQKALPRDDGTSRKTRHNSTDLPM

The target of assay [12] is T5, PDPK1 (prey, CIC format) (human) (UniProt O15530).
T5 sequence (looked up): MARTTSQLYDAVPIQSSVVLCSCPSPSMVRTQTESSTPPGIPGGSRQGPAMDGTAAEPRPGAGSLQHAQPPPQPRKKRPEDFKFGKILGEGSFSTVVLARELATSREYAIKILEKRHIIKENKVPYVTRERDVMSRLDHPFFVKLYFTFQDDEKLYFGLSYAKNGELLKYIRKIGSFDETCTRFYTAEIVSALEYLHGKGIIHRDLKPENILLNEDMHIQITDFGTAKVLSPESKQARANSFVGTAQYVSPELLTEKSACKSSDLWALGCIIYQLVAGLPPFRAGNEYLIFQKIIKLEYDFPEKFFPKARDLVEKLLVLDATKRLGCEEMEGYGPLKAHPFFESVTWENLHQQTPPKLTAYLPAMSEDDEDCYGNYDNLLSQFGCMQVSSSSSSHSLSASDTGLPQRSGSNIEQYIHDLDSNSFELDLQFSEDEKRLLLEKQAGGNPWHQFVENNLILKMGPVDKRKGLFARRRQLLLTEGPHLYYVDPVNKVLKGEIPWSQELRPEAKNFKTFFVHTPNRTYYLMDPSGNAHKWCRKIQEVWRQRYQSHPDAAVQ

Assay [13] has as its target T6, NCBP2 (prey, CIC format) (human) (UniProt P52298).
T6 sequence (looked up): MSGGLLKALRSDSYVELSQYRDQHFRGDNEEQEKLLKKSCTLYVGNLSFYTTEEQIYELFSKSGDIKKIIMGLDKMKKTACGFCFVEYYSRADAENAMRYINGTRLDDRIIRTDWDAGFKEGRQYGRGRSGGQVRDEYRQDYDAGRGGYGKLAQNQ

Assay [14] addresses T7, S100B (prey, CIC format) (human) (UniProt P04271).
T7 sequence (looked up): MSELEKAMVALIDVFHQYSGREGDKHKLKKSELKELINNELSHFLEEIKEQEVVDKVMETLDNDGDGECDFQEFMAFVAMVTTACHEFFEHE

The target of assay [15] is T8, NTF4 (prey, CIC format) (human) (UniProt P34130).
T8 sequence (looked up): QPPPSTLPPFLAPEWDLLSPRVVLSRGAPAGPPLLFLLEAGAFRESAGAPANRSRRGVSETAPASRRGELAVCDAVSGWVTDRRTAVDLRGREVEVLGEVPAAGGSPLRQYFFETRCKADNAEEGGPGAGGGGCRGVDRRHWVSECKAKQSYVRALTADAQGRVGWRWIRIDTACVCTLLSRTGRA

The target in assay [16] is T9, DRAP1 (prey, CIC format) (human) (UniProt Q14919).
T9 sequence (looked up): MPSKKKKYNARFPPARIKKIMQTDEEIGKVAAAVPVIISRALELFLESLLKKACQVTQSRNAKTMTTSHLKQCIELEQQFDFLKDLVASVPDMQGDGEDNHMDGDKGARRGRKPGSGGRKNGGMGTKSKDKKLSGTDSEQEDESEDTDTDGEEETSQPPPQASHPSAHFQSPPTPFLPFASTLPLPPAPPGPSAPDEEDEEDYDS

Chain of ARHGAP1 (prey, CIC format) (human) (Q07960 whole entry): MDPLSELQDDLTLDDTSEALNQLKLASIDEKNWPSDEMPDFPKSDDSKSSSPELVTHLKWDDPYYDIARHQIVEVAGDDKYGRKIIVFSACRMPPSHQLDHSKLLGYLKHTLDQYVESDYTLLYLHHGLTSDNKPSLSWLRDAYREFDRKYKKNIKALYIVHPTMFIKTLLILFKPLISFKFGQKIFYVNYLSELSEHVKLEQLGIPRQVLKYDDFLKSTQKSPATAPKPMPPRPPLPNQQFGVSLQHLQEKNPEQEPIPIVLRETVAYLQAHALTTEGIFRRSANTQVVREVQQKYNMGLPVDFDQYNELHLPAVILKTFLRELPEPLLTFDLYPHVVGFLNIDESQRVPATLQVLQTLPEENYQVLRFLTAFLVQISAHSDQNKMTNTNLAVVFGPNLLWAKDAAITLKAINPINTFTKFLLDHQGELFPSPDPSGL
Chain of DDIT3 (prey, CIC format) (human) (P35638 whole entry): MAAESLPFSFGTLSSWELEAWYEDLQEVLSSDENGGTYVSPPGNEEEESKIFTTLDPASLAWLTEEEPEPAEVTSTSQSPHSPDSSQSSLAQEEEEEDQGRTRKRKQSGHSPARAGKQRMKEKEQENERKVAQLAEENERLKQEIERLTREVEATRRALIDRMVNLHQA
Chain of FOS (prey, CIC format) (human) (P01100 whole entry): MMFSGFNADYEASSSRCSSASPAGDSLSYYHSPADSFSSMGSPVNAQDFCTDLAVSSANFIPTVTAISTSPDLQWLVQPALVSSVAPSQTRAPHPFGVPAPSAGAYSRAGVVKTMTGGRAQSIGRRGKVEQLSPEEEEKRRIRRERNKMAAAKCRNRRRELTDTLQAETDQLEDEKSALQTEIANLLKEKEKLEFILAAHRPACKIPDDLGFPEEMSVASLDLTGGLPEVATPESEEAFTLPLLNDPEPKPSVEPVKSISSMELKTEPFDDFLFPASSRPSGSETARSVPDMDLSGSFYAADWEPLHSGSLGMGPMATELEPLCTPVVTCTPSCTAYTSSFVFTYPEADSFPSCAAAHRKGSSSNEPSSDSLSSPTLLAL
Chain of PCNA (prey, CIC format) (human) (P12004 whole entry): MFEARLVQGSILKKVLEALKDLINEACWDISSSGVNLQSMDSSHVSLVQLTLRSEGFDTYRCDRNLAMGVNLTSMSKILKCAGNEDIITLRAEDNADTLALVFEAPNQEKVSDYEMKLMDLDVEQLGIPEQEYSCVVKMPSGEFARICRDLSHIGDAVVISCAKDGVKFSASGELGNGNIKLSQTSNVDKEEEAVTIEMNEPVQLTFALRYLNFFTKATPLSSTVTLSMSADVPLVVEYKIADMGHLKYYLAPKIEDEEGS
Chain of CASP9 (prey, CIC format) (human) (P55211 whole entry): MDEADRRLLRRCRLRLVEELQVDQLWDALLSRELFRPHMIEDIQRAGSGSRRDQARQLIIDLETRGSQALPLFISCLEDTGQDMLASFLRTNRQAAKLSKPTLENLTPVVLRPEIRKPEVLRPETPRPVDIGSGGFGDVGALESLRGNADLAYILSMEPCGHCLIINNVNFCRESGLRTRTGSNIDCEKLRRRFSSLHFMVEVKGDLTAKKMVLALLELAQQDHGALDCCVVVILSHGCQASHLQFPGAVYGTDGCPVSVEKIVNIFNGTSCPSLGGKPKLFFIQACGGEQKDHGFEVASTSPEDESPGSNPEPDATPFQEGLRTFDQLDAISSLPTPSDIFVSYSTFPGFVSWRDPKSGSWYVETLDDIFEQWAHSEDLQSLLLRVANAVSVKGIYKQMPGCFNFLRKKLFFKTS
Chain of LMNB1 (prey, CIC format) (human) (P20700 whole entry): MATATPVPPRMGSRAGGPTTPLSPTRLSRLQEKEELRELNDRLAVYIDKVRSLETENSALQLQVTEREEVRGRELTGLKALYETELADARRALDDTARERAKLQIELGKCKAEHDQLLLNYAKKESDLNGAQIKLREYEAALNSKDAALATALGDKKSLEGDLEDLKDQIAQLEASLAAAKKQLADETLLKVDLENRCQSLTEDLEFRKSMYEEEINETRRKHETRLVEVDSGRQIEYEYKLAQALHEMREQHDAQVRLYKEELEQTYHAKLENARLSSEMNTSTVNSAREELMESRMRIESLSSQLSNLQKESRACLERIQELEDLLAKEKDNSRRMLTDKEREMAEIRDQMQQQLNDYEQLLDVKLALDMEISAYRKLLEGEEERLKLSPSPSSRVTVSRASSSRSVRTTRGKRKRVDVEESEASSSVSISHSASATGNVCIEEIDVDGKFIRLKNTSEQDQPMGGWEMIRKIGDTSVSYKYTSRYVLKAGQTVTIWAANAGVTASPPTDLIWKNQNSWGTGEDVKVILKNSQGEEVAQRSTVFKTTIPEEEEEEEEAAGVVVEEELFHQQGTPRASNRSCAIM
Chain of BCL2L1 (prey, CIC format) (human) (Q07817 whole entry): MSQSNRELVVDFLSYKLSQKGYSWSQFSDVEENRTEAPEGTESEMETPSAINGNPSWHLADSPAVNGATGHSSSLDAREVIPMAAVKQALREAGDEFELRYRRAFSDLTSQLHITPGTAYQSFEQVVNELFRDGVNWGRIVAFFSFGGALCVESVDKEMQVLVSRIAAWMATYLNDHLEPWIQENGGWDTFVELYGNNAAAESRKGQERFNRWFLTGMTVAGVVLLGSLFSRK

B1: JUNB (bait, IN format) (protein, human, UniProt P17275 1-347, looked up)
chain: MCTKMEQPFYHDDSYTATGYGRAPGGLSLHDYKLLKPSLAVNLADPYRSLKAPGARGPGPEGGGGGSYFSGQGSDTGASLKLASSELERLIVPNSNGVITTTPTPPGQYFYPRGGGSGGGAGGAGGGVTEEQEGFADGFVKALDDLHKMNHVTPPNVSLGATGGPPAGPGGVYAGPEPPPVYTNLSSYSPASASSGGAGAAVGTGSSYPTTTISYLPHAPPFAGGHPAQLGLGRGASTFKEEPQTVPEARSRDATPPVSPINMEDQERIKVERKRLRNRLAATKCRKRKLERIARLEDKVKTLKAENAGLSSTAGLLREQVAQLKQKVMTHVSNGCQLLLGVKGHAF
On to B1, for which the PLU mean was 2.04 in assay [1] and 0.345 in assay [2].

B2: BAD (bait, IN format) (protein, human, UniProt Q92934 1-168, looked up)
chain: MFQIPEFEPSEQEDSSSAERGLGPSPAGDGPSGSGKHHRQAPGLLWDASHQQEQPTSSSHHGGAGAVEIRSRHSSYPAGTEDDEGMGEEPSPFRGRSRSAPPNLWAAQRYGRELRRMSDEFVDSFKKGLPRPKSAGTATQMRQSSSWTRVFQSWWDRNLGRGSSAPSQ
With B2, the PLU mean in assay [3] was found to be 1.85; in assay [4], 0.499.

B3: ATF3 (bait, IN format) (protein, human, UniProt P18847 1-181, looked up)
chain: MMLQHPGQVSASEVSASAIVPCLSPPGSLVFEDFANLTPFVKEELRFAIQNKHLCHRMSSALESVTVSDRPLGVSITKAEVAPEEDERKKRRRERNKIAAAKCRNKKKEKTECLQKESEKLESVNAELKAQIEELKNEKQHLIYMLNLHRPTCIVRAQNGRTPEDERNLFIQQIKEGTLQS
Take B3: the PLU mean was found to be 1.64 in assay [5] and 0.134 in assay [6].

B4: CEBPG (bait, IN format) (protein, human, UniProt P53567 1-150, looked up)
chain: MSKISQQNSTPGVNGISVIHTQAHASGLQQVPQLVPAGPGGGGKAVAPSKQSKKSSPMDRNSDEYRQRRERNNMAVKKSRLKSKQKAQDTLQRVNQLKEENERLEAKIKLLTKELSVLKDLFLEHAHNLADNVQSISTENTTADGDNAGQ
B4: the values for the PLU mean in assay [7], in assay [8] and in assay [9] were 0.482, 0.0585 and 0.788, respectively.

B5: GADD45A (bait, IN format) (protein, human, UniProt P24522 1-165, looked up)
chain: MTLEEFSAGEQKTERMDKVGDALEEVLSKALSQRTITVGVYEAAKLLNVDPDNVVLCLLAADEDDDRDVALQIHFTLIQAFCCENDINILRVSNPGRLAELLLLETDAGPAASEGAEQPPDLHCVLVTNPHSSQWKDPALSQLICFCRESRYMDQWVPVINLPER
On to B5, for which the PLU mean in assay [10] is 0.0617; in assay [11] it was 0.21; in assay [12] it was 0.265.

B6: NCBP1 (bait, IN format) (protein, human, UniProt Q09161 1-790, looked up)
chain: MSRRRHSDENDGGQPHKRRKTSDANETEDHLESLICKVGEKSACSLESNLEGLAGVLEADLPNYKSKILRLLCTVARLLPEKLTIYTTLVGLLNARNYNFGGEFVEAMIRQLKESLKANNYNEAVYLVRFLSDLVNCHVIAAPSMVAMFENFVSVTQEEDVPQVRRDWYVYAFLSSLPWVGKELYEKKDAEMDRIFANTESYLKRRQKTHVPMLQVWTADKPHPQEEYLDCLWAQIQKLKKDRWQERHILRPYLAFDSILCEALQHNLPPFTPPPHTEDSVYPMPRVIFRMFDYTDDPEGPVMPGSHSVERFVIEENLHCIIKSHWKERKTCAAQLVSYPGKNKIPLNYHIVEVIFAELFQLPAPPHIDVMYTTLLIELCKLQPGSLPQVLAQATEMLYMRLDTMNTTCVDRFINWFSHHLSNFQFRWSWEDWSDCLSQDPESPKPKFVREVLEKCMRLSYHQRILDIVPPTFSALCPANPTCIYKYGDESSNSLPGHSVALCLAVAFKSKATNDEIFSILKDVPNPNQDDDDDEGFSFNPLKIEVFVQTLLHLAAKSFSHSFSALAKFHEVFKTLAESDEGKLHVLRVMFEVWRNHPQMIAVLVDKMIRTQIVDCAAVANWIFSSELSRDFTRLFVWEILHSTIRKMNKHVLKIQKELEEAKEKLARQHKRRSDDDDRSSDRKDGVLEEQIERLQEKVESAQSEQKNLFLVIFQRFIMILTEHLVRCETDGTSVLTPWYKNCIERLQQIFLQHHQIIQQYMVTLENLLFTAELDPHILAVFQQFCALQA
For the molecule B6, the PLU mean in assay [13] was 2.15; in assay [14], 0.217.

B7: DR1 (bait, IN format) (protein, human, UniProt Q01658 1-176, looked up)
chain: MASSSGNDDDLTIPRAAINKMIKETLPNVRVANDARELVVNCCTEFIHLISSEANEICNKSEKKTISPEHVIQALESLGFGSYISEVKEVLQECKTVALKRRKASSRLENLGIPEEELLRQQQELFAKARQQQAELAQQEWLQMQQAAQQAQLAAASASASNQAGSSQDEEDDDDI
As for B7, the PLU mean was found to be 0.0529 in assay [15] and 3.97 in assay [16].
